The values that follow come from patent US20040072238A1 (Kyowa Kirin, published 2004).

One experiment deals with T1, human insulin (Sigma) (human, UniProt P01308 25-54; P01308 90-110).
T1 construct: Bought reagent
The experiment in a line: far-Western: COS-1 cell lysate on PVDF membrane, probed with human insulin, detected with anti-human insulin polyclonal antibody. On the procedure: (§1) To investigate the binding affinity of the proteins encoded by C-hsi13412 and C-kaia397 to IGF, analysis by far-Western (Molecular Cloning—A Laboratory Manual, Third Edition, Cold Spring Harbor Laboratory; Protein Experiment Protocol 1, Shujunsha) was carried out using the cell lysates of COS-1/C-hsi13412 cell line, COS-1/C-kaia397, and, as a control, COS-1/mock cell line obtained in Example 8.
(§2) A 5 μl aliquot of the cell lysates of COS-1/mock cell line, COS-1/C-hsi13412 cell line, and COS-1/C-kaia397 cell line was placed into each lane, and according to Example 14, SDS-PAGE was carried out, transferred to a PVDF membrane, and then blocked. Subsequently, 2 μg/ml human IGF-I (Peprotech), 2 μg/ml human IGF-II (Peprotech), or 2 μg/ml of human insulin (Sigma) diluted with the blocking solution was enclosed with the membrane, and was allowed to react at room temperature overnight. Next, anti-human IGF-I monoclonal antibody (Upstate Biotechnology), anti-human IGF-II monoclonal antibody (Upstate Biotechnology), or anti-human insulin polyclonal antibody (Santa Cruz) were added to each of the membranes to a concentration of 2 μg/ml, and was left standing at room temperature for 1 hour. After the membrane was washed well with Tween-TBS, detection was carried out using peroxiase-labeled rabbit anti-mouse immunoglobulin (DAKO) diluted 2,000 times as the secondary antibody.

A further experiment addresses T2, human IGF-I (Peprotech) (human, UniProt P05019 49-118).
T2 construct: Bought reagent; also called IGF-1
As to the kind of experiment: far-Western: COS-1 cell lysate on PVDF membrane, probed with 2 µg/ml human IGF-I, detected with anti-human IGF-I monoclonal antibody. On the procedure: as §1, §2

In the next experiment the target is T3, human IGF-II (Peprotech) (human, UniProt P01344 25-91).
T3 construct: Bought reagent; also called IGF-2
As to the kind of experiment: far-Western: COS-1 cell lysate on PVDF membrane, probed with 2 µg/ml human IGF-II, detected with anti-human IGF-II monoclonal antibody. How it is done: as §1, §2

T2 sequence (P05019 49-118 limits assumed): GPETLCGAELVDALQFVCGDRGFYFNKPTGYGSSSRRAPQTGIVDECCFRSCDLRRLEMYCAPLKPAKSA
T3 sequence (P01344 25-91 limits assumed): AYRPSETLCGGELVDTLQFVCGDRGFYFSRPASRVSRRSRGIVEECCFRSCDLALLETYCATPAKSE
T1 sequence (P01308 25-54 limits assumed, chain 1 of 2): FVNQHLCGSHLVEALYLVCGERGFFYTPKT
T1 sequence (P01308 90-110 limits assumed, chain 2 of 2): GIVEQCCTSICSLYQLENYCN

B1: protein encoded by C-kaia397 with FLAG marker peptide at the C-terminus, expressed in COS-1 cells (COS-1/C-kaia397 cell line) (other, not shown: small tags and cut ends)
chain: RPSPGPDYLRRGWMRLLAEGEGCAPCRPEECAAPRGCLAGRVRDAGGCCWECANLEGQLCDLDPSAHFYGHCGEQLECRLDTGGDLSRGEVPEPLCACRSQSPLCGSDGHTYSQICRLQEAARARPDANLTVAHPGPCESDWMPLLGHAILRPPAFTPRAPDRVTSI
notes: Tested as COS-1 cell lysate or culture supernatant, not purified
On to B1, for which the binding result in the experiment with human insulin (Sigma) was “no binding (tested: 2 µg/ml)”; with human IGF-I (Peprotech), “binds”; in the experiment with human IGF-II (Peprotech), “binds”.
